The values that follow come from US20220056137A1 (GIGAGEN, published 2022).

Residue numbers refer to the chain shown, from its start. Where two headings read alike, the source gives them in different places.

Assay [1] deals with T1, human PD-L1 protein (soluble) (human, UniProt Q9NZQ7 19-239).
T1 construct: also called PD-L1 (R&D Systems); His-tagged PD-L1 protein
The assay is described as follows: SPR, mAb captured on anti-human IgG Fc, PD-L1 as analyte. On the technique in general: In SPR one partner is held on a chip, and binding of the other changes the refractive index at the surface.
Description: (§1) The surface was then deactivated with 1 M ethanolamine pH 8.5 (Carterra Inc.). Running buffer used for the lawn immobilization was HBS-EPC (10 mM HEPES, 150 mM NaCl, 3 mM EDTA, 0.05% Tween 20, pH 7.4; Teknova).
(§2) The sensor chip was then transferred to a continuous flow microspotter (CFM; Carterra Inc.) for array capturing. The mAb supernatants were diluted 50-fold (3-10 mg/mL final concentration) into HBS-EPC with 1 mg/mL BSA. The samples were each captured twice with 15-minute and 4-minute capture steps on the first and second prints, respectively, to create multiple densities, using a 65 mL/min flow rate. The running buffer in the CFM was also HBS-EPC.
(§3) Next, the sensor chip was loaded onto an SPR reader (MX-96 system; Ibis Technologies) for the kinetic analysis. […] PD-L1 injections were 5 minutes with a 15-minute dissociation at 8 mL/second in a non-regenerative kinetic series. An injection of the goat anti-Human IgG Fc capture antibody at 75 mg/mL was injected at the end of the series to verify the capture level of each mAb. Binding data was double referenced by subtracting an interspot surface and a blank injection and analyzed for ka (on-rate), kd (off-rate), and KD (affinity) using the Kinetic Interaction Tool software (Carterra Inc.).

The target of assay [2] is PD-L1 expressed on CHO cells (human, UniProt Q9NZQ7 19-290). As to the kind of experiment: cell-based or functional assay.
Assay [3] addresses T1, human PD-L1 protein (soluble). As to the kind of experiment: SPR, mAb captured on anti-human IgG Fc, PD-L1 as analyte. The source holds these as a separate data set.
Description: as §1, §2, §3
Another assay deals with T2, rhPD-L1-Fc (human, UniProt Q9NZQ7 19-239, limits assumed).
T2 construct: Recombinant human PD-L1-Fc coated on ELISA plates; not shown: Fc part
As to the kind of experiment: competition ELISA: plate-bound rhPD-L1-Fc, antibody titrated, competitor rhCD80-His detected.

The next assay concerns the target T3, cyno PD-L1 (cyno).
T3 construct: Soluble analyte in BLI
As to the kind of experiment: BLI (Octet), antibody on AHC biosensor, cyno PD-L1 as analyte.
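Throughout, for koff: array SPR with mAb supernatants captured at several densities, PD-L1 injected for 5 min then 15 min dissociation, non-regenerative kinetic series, double-referenced against interspot surface and blank injection.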
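Throughout, for kon: array SPR with mAb supernatants captured at several densities, PD-L1 injected for 5 min then 15 min dissociation, non-regenerative kinetic series, double-referenced against interspot surface and blank injection.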

T1 sequence (Q9NZQ7 19-239 limits assumed): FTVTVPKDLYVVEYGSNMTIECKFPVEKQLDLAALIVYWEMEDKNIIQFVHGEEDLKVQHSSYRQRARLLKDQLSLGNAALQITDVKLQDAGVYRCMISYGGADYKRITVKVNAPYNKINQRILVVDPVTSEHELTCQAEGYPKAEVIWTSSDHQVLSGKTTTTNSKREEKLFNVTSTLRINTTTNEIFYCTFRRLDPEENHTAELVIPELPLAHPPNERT
T2 sequence (Q9NZQ7 19-239 limits assumed): as above
Chain of PD-L1 expressed on CHO cells (Q9NZQ7 19-290 limits assumed): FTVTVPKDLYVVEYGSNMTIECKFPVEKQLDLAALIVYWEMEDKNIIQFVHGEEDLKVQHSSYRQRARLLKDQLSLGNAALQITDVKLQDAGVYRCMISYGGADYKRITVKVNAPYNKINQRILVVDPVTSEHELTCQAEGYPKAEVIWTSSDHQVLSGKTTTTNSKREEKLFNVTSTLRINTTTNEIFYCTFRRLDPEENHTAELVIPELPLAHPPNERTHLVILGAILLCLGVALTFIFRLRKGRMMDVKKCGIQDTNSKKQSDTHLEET
Description for cyno PD-L1: For BLI, antibodies were loaded onto an Anti-Human IgG Fc (AHC) biosensor using the Octet Red96 system (ForteBio). Loaded biosensors were dipped into antigen dilutions beginning at 300 nM, with 6 serial dilutions at 1:3. Kinetic analysis was performed using a 1:1 binding model and global fitting.
Description for rhPD-L1-Fc: Plates were coated with rhPD-L1-Fc and then blocked with 1× PBS with 2% w/v BSA. After blocking a dilution series of the indicated antibody was added to the plate.

B1: antibody A18 (antibody, V domains shown)
VH: QVQLVESGGGVVQPGRSLRLSCAASGFTFSSFALHWVRQAPGKGLEWVAVLWYDGISKYYADSVKGRFTISRDNSKNTLYLQMNSLRAEDTAVYYCARDVVGVHDAFDIWGQGTMVTVSS
VL: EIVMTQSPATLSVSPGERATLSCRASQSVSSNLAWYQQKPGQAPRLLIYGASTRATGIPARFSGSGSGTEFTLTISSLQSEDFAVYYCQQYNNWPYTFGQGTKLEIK
notes: also called L18H18
For B1, binding in assay [1] was put at a Kd of 442 nM. Also, in assay [2], the “Promega assay antagonist (EC50, ug/mL)” value turned out to be 0.088 µg/mL. Also, in assay [3], the Kd (usually the equilibrium constant for the complex coming apart) was 438 nM; the dissociation rate constant (koff) (in general, a measure of how fast the partners let go of each other) worked out at 0.035 s⁻¹; the kon – broadly, a measure of how fast the partners come together – came out at 80000 M⁻¹ s⁻¹.

B2: antibody A13 (antibody, V domains shown)
VH: QVQLQESGPGLVKPSETLSLTCTVSGGSISSYYWSWIRQPPGKGLEWIGYIHYSGSTKYNPSLKSRVTISLDTSKNQFSLKLSSVTAADTAVYYCARDRGIGAFDIWGQGTMVTVSS
VL: EIVMTQSPATLSLSPGERATLSCRASQSVSSSYLSWYQQKPGQAPRLLIYGASTRATGIPARFSGSGSGTDFTLTISSLQPEDFAVYYCQQDYNLITFGQGTRLEIK
notes: Tested as full-length mAb made in CHO cells; also called L13H13
With B2, the Kd in assay [1] stood at 124 nM; with cyno PD-L1, 101 nM; in assay [3] it was 126 nM. In addition, in assay [2], the “Promega assay antagonist (EC50, ug/mL)” value turned out to be 1.12 µg/mL. Further, the EC50 (as a rule, the concentration at which the effect is half-maximal) with rhPD-L1-Fc is 0.6 µg/mL. The molecule further yielded a koff in assay [3] of 0.039 s⁻¹. The molecule further gave an on-rate constant (kon) in assay [3] of 310000 M⁻¹ s⁻¹.

B3: antibody A23 (antibody, V domains shown)
VH: QVQLVQSGAEVKKPGASVKVSCKASGYTFTNYGISWVRQAPGQGLEWMGWISAYNGNTNYEQKVQGRVTMTTDTSTSTAYMELRSLRSDDTAVYYCARSLTGLFDYWGQGTLVTVSS
VL: DIQMTQSPSSLSASVGDRVTITCRASQGIRNDLGWYQQKPGKAPKRLIYAASSLQSGVPSRFSGSGSGTEFTLTISSLQPEDFATYYCLQHNSYPMFTFGQGTKLEIK
Turning to B3, the “Promega assay antagonist (EC50, ug/mL)” value in assay [2] was determined as 9.8 µg/mL.

B4: antibody A10 (antibody, V domains shown)
VH: QVQLVESGGGVVQPGRSLRLSCAASGFTFSSYGMHWVRQAPGKGLEWVAVIWYDGINKYYADSVKGRFTISRDNSKNTLYLQMNSLRAEDTAVYYCARDSTASPFDYWGQGTLVTVSS
VL: EIVMTQSPATLSLSPGERATLSCRASQSVSSSYLSWYQQKPGQAPRLLIYGASTRATGIPARFSGSGSGTDFTLTISSLQPEDFAVYYCQQDYNLPHTFGQGTKLEIK
notes: Tested as full-length mAb made in CHO cells; also called L10H10
In assay [1], B4 yielded a Kd of 42 nM. Further, in assay [2], the “Promega assay antagonist (EC50, ug/mL)” value is 0.27 µg/mL. The same molecule gave an EC50 with rhPD-L1-Fc of 2.24 µg/mL. This molecule also had a Kd with cyno PD-L1 of 27.4 nM. In assay [3], this molecule gave a Kd of 40.9 nM, a koff of 0.018 s⁻¹ and a kon of 440000 M⁻¹ s⁻¹.

B5: antibody A1 (antibody, V domains shown)
VH: QVQLVQSGAEVKKPGASVKVSCKASGFTFTSYDINWVRQATGQGLEWMGWMHPNSGITGYAQKFQGRVTMTRNTSISTAYMELSSLSSEDTAVYFCARYYYVSGSYDYWGQGTLVTVSS
VL: B4 VL with R24W, H97Y
notes: Tested as full-length mAb made in CHO cells; also called L1H1
With B5, the Kd in assay [1] turned out to be 0.13 nM; in the assay with cyno PD-L1, 0.31 nM; in assay [3], 0.13 nM. Also, the “Promega assay antagonist (EC50, ug/mL)” value in assay [2] turned out to be 0.0415 µg/mL. The same molecule yielded an EC50 in the assay with rhPD-L1-Fc of 0.4 µg/mL. For the same molecule, in assay [3], the koff was 0.00013 s⁻¹. The molecule further had an on-rate constant (kon) in assay [3] of 1e+06 M⁻¹ s⁻¹.

B6: antibody A6 (antibody, V domains shown)
VH: B4 VH with Y53F, I56S, S100K, A102V, Y107I, L113M
VL: B2 VL with I96F, Q100P, R103K, L104V, E105D
notes: Tested as full-length mAb made in CHO cells; also called L6H6
In assay [1], B6 showed a Kd of 16 nM. Besides, the “Promega assay antagonist (EC50, ug/mL)” value in assay [2] is 0.111 µg/mL. The molecule also yielded an EC50 in the assay with rhPD-L1-Fc of 2.62 µg/mL. In assay [3], this molecule displayed a Kd of 15.8 nM, a koff of 0.0049 s⁻¹ and a kon of 310000 M⁻¹ s⁻¹.

B7: antibody A9 (antibody, V domains shown)
VH: B4 VH with Y53F, I56N, S100V, A102T, S103V
VL: B4 VL with I49M, H97Y
notes: Tested as full-length mAb made in CHO cells; also called L9H9
In the case of B7, binding in assay [1] was put at a Kd of 26 nM. In addition, the “Promega assay antagonist (EC50, ug/mL)” value in assay [2] was 0.28 µg/mL. For the same molecule, a half-maximal effect in the assay with rhPD-L1-Fc (EC50) was put at 1.49 µg/mL. The Kd with cyno PD-L1 was 20.9 nM. In addition, in assay [3], the Kd came out at 26.2 nM, the koff worked out at 0.0055 s⁻¹ and the kon was 210000 M⁻¹ s⁻¹.

B8: antibody A14 (antibody, V domains shown)
VH: B4 VH with I56S, N57V, S100R, A102G, S103V
VL: B4 VL
notes: Tested as full-length mAb made in CHO cells; also called L14H14
Consider B8, for which the Kd worked out at 148 nM in assay [1], 57.7 nM in the assay with cyno PD-L1 and 146 nM in assay [3]. Besides, the “Promega assay antagonist (EC50, ug/mL)” value in assay [2] was 1.23 µg/mL. The molecule also yielded an EC50 with rhPD-L1-Fc of 0.6 µg/mL. This molecule also yielded a koff in assay [3] of 0.038 s⁻¹. The same molecule returned a kon in assay [3] of 260000 M⁻¹ s⁻¹.

B9: antibody A19 (antibody, V domains shown)
VH: QVQLVESGGGVVQPGRSLRLSCVASGFTFSSYGMHWVRQAPGKGLEWVAVIWYDGSNKFYIDSVKGRFTISRDNSKNTLYLQMNSLRAEDTAVYYCARGGAVAGTSWYYYYGMDVWGQGTTVTVSS
VL: DIQLTQSPSFLSASVGDRVTITCRASQGISSYLAWYQQKPGKAPKLLIYDASTLQSGVPSRFSGSGSGTEFTLTISSLQPEDFAIYYCQQLNTYPLTFGGGTKVEIK
notes: Tested as full-length mAb made in CHO cells; also called L19H19
The molecule B9 displayed a Kd in assay [1] of 567 nM. Moreover, in assay [3], the dissociation constant Kd amounted to 565 nM, the koff is 0.0035 s⁻¹ and the kon came to 6200 M⁻¹ s⁻¹.

B10: antibody A21 (antibody, V domains shown)
VH: B9 VH with V23A, I61E, A101V, V102N, A103W, G104N, T105D, S106V, W107G
VL: B9 VL with S9P, D50A, I85T, T93S, L96F, G100Q, V104L
notes: Tested as full-length mAb made in CHO cells; also called L21H21
In assay [1], B10 returned a Kd of 860 nM. Also, in assay [3], the Kd was determined as 867 nM, the off-rate (koff) stood at 0.013 s⁻¹ and the on-rate constant (kon) was 15000 M⁻¹ s⁻¹.

B11: antibody A11 (antibody, V domains shown)
VH: QVQLVESGGGVVQPGRSLRLSCAASGFTFSSYGIHWVRQAPGKGLEWVAVIWSDGSNKFYADSVKGRFTISRDNSKNTLFLQMSSLRAEDTAVYYCARDIAAAIDYWGQGTLVTVSS
VL: AIQMTQSPSSLSASVGDRVTITCRASQGIRNDLGWYQQKPGKAPKLLIYAASSLQSGVPSRFSGSGSGTDFTLTISSLQPEDFATYYCLQDYNYPYTFGQGTKLEIK
notes: Tested as full-length mAb made in CHO cells; also called L11H11
On to B11, for which the dissociation constant Kd in assay [1] is 66 nM; with cyno PD-L1, 17.7 nM; in assay [3], 64.7 nM. The “Promega assay antagonist (EC50, ug/mL)” value in assay [2] worked out at 0.158 µg/mL. The EC50 in the assay with rhPD-L1-Fc worked out at 0.56 µg/mL. The same molecule came in with a koff in assay [3] of 0.011 s⁻¹. This molecule also returned a kon in assay [3] of 170000 M⁻¹ s⁻¹.

B12: antibody A15 (antibody, V domains shown)
VH: QLQLQESGPGLVKPSETLSLTCTVSGGSFNRSNYYWGWIRQPPGKGLEWIGSIYYSGSTYYNPSLKSRLTISADTSKTQFSLKRNSVTAADTAVYYCAREDIVVVPAAQPPHFYFGMDVWGQGTTVTVSS
VL: B11 VL with A1D, L46R, D70E, D91H, Y92D, N93S, Y96L, Q100G, L104V
notes: Tested as full-length mAb made in CHO cells; also called L15H15
In turn, B12 registered a Kd in assay [1] of 227 nM. Further, the “Promega assay antagonist (EC50, ug/mL)” value in assay [2] came to 0.55 µg/mL. In assay [3], this molecule came in with an equilibrium dissociation constant (Kd) of 227 nM, an off-rate constant (koff) of 0.022 s⁻¹ and a kon of 97000 M⁻¹ s⁻¹.

B13: antibody A12 (antibody, V domains shown)
VH: QVQLVESGGGVVQPGRSLRLSCAASGFTFSSYGMHWVRQAPGKGLEWVAVIWYDGSNKSYADSVKGRFTFSRDNSKNTLYLQMNSLRAEDTAVYYCARDMDYFGLDVWGQGTTVTVSS
VL: B11 VL with A1D, L46R, D70E, D91H, Y92N, N93S, Y96R, L104V
notes: Tested as full-length mAb made in CHO cells; also called L12H12
B13 showed a Kd in assay [1] of 80 nM. Besides, in assay [2], the “Promega assay antagonist (EC50, ug/mL)” value was 3.13 µg/mL. Also, in the assay with cyno PD-L1, the Kd is 75.9 nM. For the same molecule, in assay [3], the Kd amounted to 81.3 nM, the off-rate constant (koff) was 0.013 s⁻¹ and the association rate constant (kon) turned out to be 160000 M⁻¹ s⁻¹.

B14: antibody A17 (antibody, V domains shown)
VH: QVQLQESGPGLVKPSETLSLTCTVSGGSISGYSWSWIRQPPGKGLEWIGYIYYSGSTNNNPSLKSRVTISVDTSKNQFSLKLSSVTAADTAVYFCARDDGIAVAGYYFYYGLDVWGQGTTVTVSS
VL: B11 VL with A1D, L46R, D70E, D91H, Y92N, N93T, Y96W, L104V
notes: Tested as full-length mAb made in CHO cells; also called L17H17
In turn, B14 registered a Kd in assay [1] of 335 nM. In addition, the “Promega assay antagonist (EC50, ug/mL)” value in assay [2] turned out to be 2.25 µg/mL. Further, in the assay with cyno PD-L1, the Kd worked out at 762 nM. Moreover, in assay [3], the equilibrium dissociation constant (Kd) is 335 nM, the koff is 0.077 s⁻¹ and the kon is 230000 M⁻¹ s⁻¹.

B15: antibody A20 (antibody, V domains shown)
VH: B14 VH with G31S, S33Y, N59Y, F94Y, G100R, A104G, G105P, F108Y, L112M
VL: B11 VL with A1D, L46R, D70E, D91H, Y92N, N93S
notes: Tested as full-length mAb made in CHO cells; also called L20H20
The molecule B15 gave a Kd in assay [1] of 675 nM. Further, in assay [3], binding was characterised by a dissociation constant (Kd) of 688 nM, the koff was 0.11 s⁻¹ and the on-rate (kon) is 160000 M⁻¹ s⁻¹.

B16: antibody A16 (antibody, V domains shown)
VH: B13 VH with S59Y, F70I, K76N, N77D, Y80F, M100F, Y102W, L105M
VL: B11 VL with A1D, L46R, D70E, D91H, Y92N, N93S, Y96R, L104V
notes: Tested as full-length mAb made in CHO cells; also called L16H16
Turning to B16, the affinity in assay [1], expressed as Kd, was 246 nM. In the assay with rhPD-L1-Fc, this molecule returned an EC50 of 0.64 µg/mL. Besides, in the assay with cyno PD-L1, the Kd worked out at 532 nM. In assay [3], the Kd was found to be 250 nM, the koff was 0.035 s⁻¹ and the kon is 140000 M⁻¹ s⁻¹.
